PMC10783083, “Val43 residue of NsrR is crucial for the nitric oxide response of Salmonella Typhimurium”

Experiments:
[1] = target: NsrR V43A, in vitro translated (Salmonella enterica serovar Typhimurium …, UniProt Q8ZKA3 1-141, V43A); assay: EMSA; 2 uM; clear shift; conditions: protein: ivt; tags: N-terminal His (pET28a); chain copies: 2; label: 32P (5' by T4 PNK); blunt
[2] = target: NsrR V43A (Salmonella enterica serovar Typhimurium …, UniProt Q8ZKA3 1-141, V43A); assay: EMSA; no NO; 0.0625-4 uM protein; stronger than WT; conditions: protein: recombinant; tags: N-terminal His (pET28a); chain copies: 2; label: 32P (5' by T4 PNK); blunt

B1: hmp probe (dsDNA)
DNA 1: AAGATGCATTTGATATACATCATT
DNA 2: AATGATGTATATCAAATGCATCTT
**Q.** Which results are given for B1?
**A.** binding result [1]: binds; binding result [2]: binds
